# T1: hexahistidine (his6)-tagged Qc-SNARE Vam7 (yeast, UniProt P32912 1-316)
# T1 sequence (looked up): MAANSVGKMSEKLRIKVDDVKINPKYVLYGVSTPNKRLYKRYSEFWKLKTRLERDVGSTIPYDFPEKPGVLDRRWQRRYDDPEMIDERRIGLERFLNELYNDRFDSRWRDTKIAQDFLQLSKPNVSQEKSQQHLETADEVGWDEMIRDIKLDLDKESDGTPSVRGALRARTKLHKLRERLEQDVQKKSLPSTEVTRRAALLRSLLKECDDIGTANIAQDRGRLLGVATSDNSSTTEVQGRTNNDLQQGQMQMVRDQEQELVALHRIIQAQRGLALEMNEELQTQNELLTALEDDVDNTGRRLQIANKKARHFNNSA
# B1: yeast vacuolar R-SNARE Nyv1, membrane-anchored (natural protein, UniProt Q12255 1-253, looked up)
# chain: MKRFNVSYVEVIKNGETISSCFQPFQKNENYGTITSANEQITPVIFHNLIMDMVLPKVVPIKGNKVTKMSMNLIDGFDCFYSTDDHDPKTVYVCFTLVDMPKILPIRILSGLQEYESNATNELLSSHVGQILDSFHEELVEYRNQTLNSSGNGQSSNGNGQNTISDIGDATEDQIKDVIQIMNDNIDKFLERQERVSLLVDKTSQLNSSSNKFRRKAVNIKEIMWWQKVKNITLLTFTIILFVSAAFMFFYLW
# Target: T1, hexahistidine (his6)-tagged Qc-SNARE …
# Experiment: pull-down
binder,measurement,value
B1,binding result,binds

# From article PMC5555656 (Molecular Biology of the Cell, 2017)
